Results on four molecules are retold here after US8901069B2, “Protein matrix for light-initiated electron transfer” (Research Foundation of The City University of New York, priority 2009, dated 2014).

Data set [1] in a line: Reduction potential of polypeptide-bound heme/ferric cofactor vs. hydrogen electrode. The format is physicochemical. Here is the method:
In Example 2, the reduction potential of the peptides prepared in Example 1 is regulated by modulation of peptide ionic charge and cofactor structure. The net charge of the polypeptides is calculated using conventional methods known in the art.

The nature of data set [2]: Heme binding affinity by titration of heme into anaerobic protein solution. To be noted: oxidized heme; read-out: oxidized heme binding constant.
The format of data set [3] is physicochemical. The procedure: The reduced heme binding constants are also measured for His42→Phe mutants of the polypeptides.

For “CGGGEIWKQHEEALKKFEEALKQFEELKKL (listed as Chemical synthesis) [HP-1]”, the “reduction potential difference spanned by three distinct ferric cofactors bound via bis-histidine ligation” value in data set [1] (three ferric cofactors, FIG. 4A) is on record as “approximately 400 mV”.

B1: GEIWKQHEDALQKFEEALNQFEDLKQLGGSGCGSGGEIWKQHEDALQKFEEALNQFEDLKQL (protein, listed as Chemical synthesis)
chain: GEIWKQHEDALQKFEEALNQFEDLKQLGGSGCGSGGEIWKQHEDALQKFEEALNQFEDLKQL
notes: homodimeric helix-loop-helix variant of HP-6, recombinantly expressed in E. coli
Turning to B1, the Kd in data set [2] worked out at 0.22 nM. The “reduction potential of heme complex, more positive than HP-1-heme complex” value in data set [1] (difference vs HP-1-heme complex, earlier experiments) amounted to 45 mV.

B2: CC-10: HP-7 modified to incorporate the preferred consensus sequence (protein, listed as Chemical synthesis)
chain: GEIWKQHEDALQKFEEALNQFEDLKQLGGSGCGSGGEILKQHADAAQKIFEALNQFEDLKQL
As to B2, the Kd in data set [2] is 0.0107 nM. For the same molecule, in data set [3], the “stability of heme-bound complex” value was “long-term stability”.

B3: CC-9: HP-7 peptide with specific Glu→Ala mutations (protein, listed as Chemical synthesis)
chain: GEIWKQHEDALQKFEEALNQFEDLKQLGGSGCGSGGEIWKQHADALQKFAEALNQFADLKQL
For the molecule B3, the “increase in bound heme reduction potential compared to HP-7” value in data set [1] (difference vs HP-7, FIG. 4B) was determined as 101 mV.
